According to US20250270297A1 (DAEGU GYEONGBUK INSTITUTE OF SCIENCE AND TECHNOLOGY, published 2025):

B1: C11 (Fc fusion)
VL: ETTLTQSPGTLSVSPGERVTLSCRASQSVSSYLAWYQQKPGQAPRLLIYGASTRATGIPDRFSGSGSGTDFTLTISRLEPEDFAVYYCQQYGISPLNFGGGTKVEIK
VH: QVQLVQSGAEVKKPGSSVKVSCKASGGTFSSYAISWVRQAPGQGLEWMGGVIPIFGTANYAQKFRGRVTMTTDTSTSTAYMELRSLTSDDTAVYYCASPQGTWSTFLEWQGAFSVWGQGTTVTVSS
B2: C32 (Fc fusion)
VL: DIQMTQSPAIMSASPGERVTMTCSASSSIRYIYWYQQKPGSSPRLLIYDTSNVAPGVPFRFSGSGSGTSYSLTINRMEAEDAATYYCQEWSGYPYTFGGGTKVEIKR
VH: QVQLVQSGAEVKKPGSSVKVSCKASGGSFSSYAISWVRQAPGQGLEWMGGIIPIFGTANYAQKFQGRVTITADESTSTAYMELSSLRSEDTAVYYCANLRGGSSHYGMDVWGQGTLVTVSS
B3: C8 (Fc fusion)
VL: QSALTQPASASGSPGQSVTISCTGTSSDVGGYNYVSWYQQHPGKAPKLMIYDVSKRPSGVSDRFSGSKSGNTASLTISGLQAEDGADYYCSSYRRGRTVVFGGGTKLTVL
VH: QVQLQQWGGGLVQPGGSLRLSCAASGFTFSSYAMSWVRQAPGKGLEWVSAISGSGGSTYYADSVKGRFTISRDNSKNTLYLQMNSLRAEDTAVYYCAKNYFGNPRGFDYWGQGTMVTVSS

Each binder was assayed against T1, rhACE2 (ACRO, Human ACE2/ACEH Protein, His Tag, #AC2-H52H8) (human, UniProt Q9BYF1 18-740) (assay: ELISA, rhACE2 coated at 0.2 ug/well, antibody at 0.02-2.5 ug/ml, anti-human-Fc-HRP, absorbance at 450 nm).
T1 construct: not shown: His tag
T1 sequence (Q9BYF1 18-740 limits assumed): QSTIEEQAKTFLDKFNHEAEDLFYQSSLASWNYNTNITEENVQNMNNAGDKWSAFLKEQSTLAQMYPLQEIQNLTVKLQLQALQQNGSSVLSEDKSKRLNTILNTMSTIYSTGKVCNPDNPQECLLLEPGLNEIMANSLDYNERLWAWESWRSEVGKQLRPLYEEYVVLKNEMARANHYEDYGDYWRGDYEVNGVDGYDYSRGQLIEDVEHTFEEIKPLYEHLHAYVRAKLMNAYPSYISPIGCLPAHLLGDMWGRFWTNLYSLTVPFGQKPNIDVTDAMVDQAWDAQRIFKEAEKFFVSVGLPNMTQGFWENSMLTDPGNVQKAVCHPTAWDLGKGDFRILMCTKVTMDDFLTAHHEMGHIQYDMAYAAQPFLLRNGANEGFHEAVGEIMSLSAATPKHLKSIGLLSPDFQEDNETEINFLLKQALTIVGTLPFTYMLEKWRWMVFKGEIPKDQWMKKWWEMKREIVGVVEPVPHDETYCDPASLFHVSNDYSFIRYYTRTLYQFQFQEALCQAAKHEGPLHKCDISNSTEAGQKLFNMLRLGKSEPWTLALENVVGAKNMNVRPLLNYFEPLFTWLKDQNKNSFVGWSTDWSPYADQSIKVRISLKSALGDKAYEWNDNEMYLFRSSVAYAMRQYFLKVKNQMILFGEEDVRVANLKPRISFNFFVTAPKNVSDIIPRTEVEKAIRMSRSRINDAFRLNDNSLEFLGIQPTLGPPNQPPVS

Binder | binding result
B1 | binds
B2 | binds
B3 | binds
